Biological target: recombinant anthrax protective antigen (PA) (Bacillus anthracis, UniProt P13423 30-764)
Assay: SPR (Biacore 3000), antibody immobilized on CM3, PA in solution

Chain of recombinant anthrax protective antigen (PA) (P13423 30-764 limits assumed): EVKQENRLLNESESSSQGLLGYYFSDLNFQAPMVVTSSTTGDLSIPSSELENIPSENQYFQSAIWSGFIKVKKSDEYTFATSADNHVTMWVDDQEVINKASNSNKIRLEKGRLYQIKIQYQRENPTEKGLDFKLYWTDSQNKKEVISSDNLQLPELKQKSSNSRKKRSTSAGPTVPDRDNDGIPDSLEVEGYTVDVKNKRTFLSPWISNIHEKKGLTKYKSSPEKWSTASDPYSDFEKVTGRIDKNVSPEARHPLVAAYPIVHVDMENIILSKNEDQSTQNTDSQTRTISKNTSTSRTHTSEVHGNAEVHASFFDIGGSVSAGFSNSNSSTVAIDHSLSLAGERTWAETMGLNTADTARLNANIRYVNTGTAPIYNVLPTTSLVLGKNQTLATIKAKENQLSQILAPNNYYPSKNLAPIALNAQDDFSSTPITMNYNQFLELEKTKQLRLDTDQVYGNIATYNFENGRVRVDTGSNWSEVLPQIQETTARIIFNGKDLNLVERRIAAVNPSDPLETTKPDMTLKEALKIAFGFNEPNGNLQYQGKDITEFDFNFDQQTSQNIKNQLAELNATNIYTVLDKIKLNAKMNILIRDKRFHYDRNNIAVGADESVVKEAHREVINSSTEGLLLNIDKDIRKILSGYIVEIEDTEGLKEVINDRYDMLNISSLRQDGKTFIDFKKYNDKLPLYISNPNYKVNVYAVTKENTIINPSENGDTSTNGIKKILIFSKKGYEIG

B1: anti-PA W1 full-length IgG1 (antibody, V domains shown)
VH: EVQLLETGGGLVQPGGSLRLSCAASGFTLRSYHMSWVRRAPGKGLEWVSVIYDGGSTSYADSVKGRFTISRDNSKNTLYLQMTSLRAEDTAVYYCARSGRPLQNYYYMDVWGKGTTVTVSS
VL: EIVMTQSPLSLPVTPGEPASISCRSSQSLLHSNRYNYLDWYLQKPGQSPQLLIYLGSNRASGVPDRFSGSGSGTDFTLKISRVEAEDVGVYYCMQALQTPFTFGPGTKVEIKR
With B1 the Kd was 0.0397 nM, the koff was 1.15e-05 s⁻¹ and the kon was 290000 M⁻¹ s⁻¹.

Reference: US20100074892A1 (US Dept. of Health and Human Services, published 2010)
